We go through 20 molecules from patent US20240279345A1, “ALPHA 5 BETA 1 INTEGRIN BINDING AGENTS AND USES THEREOF” (PASITHEA THERAPEUTICS CORP., priority 2021, published 2024).

To fix the notation:
B1: A-7D06 (antibody, V domains shown)
VH: QVQLKESGPGLVAPSQSLSITCTISGFSLTTYGVHWVRQPPGKGLEWLVVIWSDGSTTYNSALKSRLNITKDNSKSQVFLKMNSLQTDDTAMYYCVRHGGLLRRDAMDYWGQGTSVTVSS
VL: QIVLTQSPAIMSASLGERVTMTCTASSSVSSNSFHWYQQKPGSSPKLWLYSTSNLASGVPARFSGSGSGTSYSLTISSMEAEDAATYYCHQYLRSPPTFGGGTKLEIK
notes: mouse hybridoma
B2: A-11G01 (antibody, V domains shown)
VH: B1 VH
VL: B1 VL
notes: mouse hybridoma
B3: A-3A08 (antibody, V domains shown)
VH: B1 VH
VL: B1 VL
notes: mouse hybridoma
B4: A-15H11 (antibody, V domains shown)
VH: QVQLQQPGAELVKPGASVKLSCKASGYTFTIYWINWVKQRPGQGLEWIGKIYPGSISTDYNEKFKSKATLTVDTSSSTAYMQLSSLTSDDSAVYYCAITGTGGLAYWGQGTLVTVSA
VL: ENVLTQSPAIMSASLGEKVTMTCRASSSVNYMYWYQQKSDASPKLWIYFTSSLAPGVPGRFSGSGSGNSYSLTISTMEGEDAATYYCQQFTTSPFTFGSGTKLEIK
notes: mouse hybridoma
B5: A-7D06 (antibody, V domains shown)
VH: B1 VH
VL: B1 VL
notes: mouse hybridoma supernatant
B6: A-3A08 (antibody, V domains shown)
VH: B1 VH
VL: B1 VL
notes: mouse hybridoma supernatant
B7: A-15B08 (antibody, V domains shown)
VH: QVQLKESGPGLVAPSQSLSITCTISGFSLTSYGVHWVRQPPGKGLEWLVVIWSDGSTTYNSTLKSRLSISKDNSKSQVFFKMNSLQTDDTAMYYCARHYDYDGDWFAYWGQGTLVTVSA
VL: B1 VL with S28R, F34L, L49I
notes: mouse hybridoma supernatant in this assay
B8: C-14D12 (antibody, V domains shown)
VH: QVQLKESGPDLVAPSQSLSITCTVSGFSLTDYGVHWVRQPPGKGLEWLVVIWSDGSTTYNSALKSRLSITKDTSKRQVFLKMNSLQTDDTAMYYCARHAPSFIRYGSRYDALDYWGQGTSVTVSS
VL: B1 VL with M21L, S30T, N32S, S33F, F34L, L49I, L93H
notes: as for B7
B9: A-4G02 (antibody, V domains shown)
VH: B7 VH
VL: B1 VL with S28R, F34L, L49I
notes: mouse hybridoma supernatant
B10: C-8G11 (antibody, V domains shown)
VH: B8 VH
VL: B1 VL with M21L, S30T, N32S, S33F, F34L, L49I, L93H
notes: mouse hybridoma supernatant
B11: A-11G01 (antibody, V domains shown)
VH: B1 VH
VL: B1 VL
notes: mouse hybridoma supernatant
B12: A-14G08 (antibody, V domains shown)
VH: B4 VH
VL: B4 VL
notes: mouse hybridoma supernatant
B13: A-15H11 (antibody, V domains shown)
VH: B4 VH
VL: B4 VL
notes: mouse hybridoma supernatant
B14: A-3A08 (antibody, V domains shown)
VH: B1 VH
VL: B1 VL
B15: A2-9A11 (antibody, V domains shown)
VH: B1 VH
VL: B1 VL
notes: mouse hybridoma antibody
B16: A2-6C10 (antibody, V domains shown)
VH: B1 VH
VL: B1 VL
notes: mouse hybridoma antibody
B17: A2-8H11 (antibody, V domains shown)
VH: B1 VH
VL: B1 VL
notes: mouse hybridoma antibody
B18: A-15B08 IgG4 Chimera (antibody, V domains shown)
VH: B7 VH
VL: B1 VL with S28R, F34L, L49I
B19: C-14D12 IgG4 Chimera (antibody, V domains shown)
VH: B8 VH
VL: B1 VL with M21L, S30T, N32S, S33F, F34L, L49I, L93H

Substitutions are numbered along the chain they refer to.

T6 sequence (P08648 42-995 limits assumed, form in doubt, chain 1 of 2): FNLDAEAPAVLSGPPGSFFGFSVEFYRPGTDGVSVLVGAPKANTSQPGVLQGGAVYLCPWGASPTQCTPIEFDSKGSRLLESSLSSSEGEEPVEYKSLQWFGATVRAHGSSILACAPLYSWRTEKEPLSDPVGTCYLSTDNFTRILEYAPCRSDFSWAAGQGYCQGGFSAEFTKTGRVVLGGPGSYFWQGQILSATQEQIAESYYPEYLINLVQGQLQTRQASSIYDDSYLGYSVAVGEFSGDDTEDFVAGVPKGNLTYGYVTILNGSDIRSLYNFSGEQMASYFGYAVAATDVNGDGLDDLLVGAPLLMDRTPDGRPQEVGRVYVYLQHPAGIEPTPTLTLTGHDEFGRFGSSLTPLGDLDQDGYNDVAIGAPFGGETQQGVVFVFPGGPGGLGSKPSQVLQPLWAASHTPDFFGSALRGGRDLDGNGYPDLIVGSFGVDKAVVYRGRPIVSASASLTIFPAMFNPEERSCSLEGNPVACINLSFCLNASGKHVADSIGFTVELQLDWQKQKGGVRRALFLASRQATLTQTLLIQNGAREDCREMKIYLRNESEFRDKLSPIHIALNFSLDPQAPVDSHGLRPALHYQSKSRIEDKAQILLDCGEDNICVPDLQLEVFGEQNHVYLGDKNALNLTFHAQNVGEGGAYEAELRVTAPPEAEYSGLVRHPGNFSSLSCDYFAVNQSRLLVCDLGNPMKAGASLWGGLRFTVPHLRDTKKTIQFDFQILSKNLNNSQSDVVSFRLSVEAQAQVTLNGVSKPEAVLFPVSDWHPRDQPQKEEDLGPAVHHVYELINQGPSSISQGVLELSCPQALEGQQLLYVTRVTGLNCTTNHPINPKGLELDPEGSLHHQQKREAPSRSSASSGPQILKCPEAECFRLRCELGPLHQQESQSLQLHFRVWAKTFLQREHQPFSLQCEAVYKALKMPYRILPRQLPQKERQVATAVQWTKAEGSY
T6 sequence (P05556 21-728 limits assumed, form in doubt, chain 2 of 2): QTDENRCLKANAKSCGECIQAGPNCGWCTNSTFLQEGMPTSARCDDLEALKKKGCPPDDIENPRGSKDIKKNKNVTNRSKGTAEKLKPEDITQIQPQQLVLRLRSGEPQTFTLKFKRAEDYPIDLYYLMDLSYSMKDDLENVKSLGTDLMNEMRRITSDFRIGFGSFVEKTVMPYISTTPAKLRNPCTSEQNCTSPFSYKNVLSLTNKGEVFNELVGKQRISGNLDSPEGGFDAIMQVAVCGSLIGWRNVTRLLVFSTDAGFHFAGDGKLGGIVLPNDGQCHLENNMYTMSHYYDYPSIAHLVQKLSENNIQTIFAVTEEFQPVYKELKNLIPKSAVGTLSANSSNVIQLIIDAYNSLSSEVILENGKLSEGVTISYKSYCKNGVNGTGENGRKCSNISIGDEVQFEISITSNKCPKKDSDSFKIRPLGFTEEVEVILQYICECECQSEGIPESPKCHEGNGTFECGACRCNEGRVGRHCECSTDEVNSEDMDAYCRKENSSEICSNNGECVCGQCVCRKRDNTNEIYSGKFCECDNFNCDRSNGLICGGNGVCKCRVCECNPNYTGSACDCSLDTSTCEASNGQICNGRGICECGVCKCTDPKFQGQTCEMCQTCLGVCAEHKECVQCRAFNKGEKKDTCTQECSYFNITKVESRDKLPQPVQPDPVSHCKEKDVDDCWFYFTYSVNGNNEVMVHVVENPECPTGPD

The target in one assay is T1, α5β1 integrin on cells (PMA-activated K562 cells; U87MG cells) (human, UniProt P08648 42-1049; P05556 21-798).
T1 construct: Endogenous integrin of human cell lines; also called cellular α5β1 integrin; cell surface α5β1 integrin receptors
T1 sequence (P08648 42-1049 limits assumed, chain 1 of 2): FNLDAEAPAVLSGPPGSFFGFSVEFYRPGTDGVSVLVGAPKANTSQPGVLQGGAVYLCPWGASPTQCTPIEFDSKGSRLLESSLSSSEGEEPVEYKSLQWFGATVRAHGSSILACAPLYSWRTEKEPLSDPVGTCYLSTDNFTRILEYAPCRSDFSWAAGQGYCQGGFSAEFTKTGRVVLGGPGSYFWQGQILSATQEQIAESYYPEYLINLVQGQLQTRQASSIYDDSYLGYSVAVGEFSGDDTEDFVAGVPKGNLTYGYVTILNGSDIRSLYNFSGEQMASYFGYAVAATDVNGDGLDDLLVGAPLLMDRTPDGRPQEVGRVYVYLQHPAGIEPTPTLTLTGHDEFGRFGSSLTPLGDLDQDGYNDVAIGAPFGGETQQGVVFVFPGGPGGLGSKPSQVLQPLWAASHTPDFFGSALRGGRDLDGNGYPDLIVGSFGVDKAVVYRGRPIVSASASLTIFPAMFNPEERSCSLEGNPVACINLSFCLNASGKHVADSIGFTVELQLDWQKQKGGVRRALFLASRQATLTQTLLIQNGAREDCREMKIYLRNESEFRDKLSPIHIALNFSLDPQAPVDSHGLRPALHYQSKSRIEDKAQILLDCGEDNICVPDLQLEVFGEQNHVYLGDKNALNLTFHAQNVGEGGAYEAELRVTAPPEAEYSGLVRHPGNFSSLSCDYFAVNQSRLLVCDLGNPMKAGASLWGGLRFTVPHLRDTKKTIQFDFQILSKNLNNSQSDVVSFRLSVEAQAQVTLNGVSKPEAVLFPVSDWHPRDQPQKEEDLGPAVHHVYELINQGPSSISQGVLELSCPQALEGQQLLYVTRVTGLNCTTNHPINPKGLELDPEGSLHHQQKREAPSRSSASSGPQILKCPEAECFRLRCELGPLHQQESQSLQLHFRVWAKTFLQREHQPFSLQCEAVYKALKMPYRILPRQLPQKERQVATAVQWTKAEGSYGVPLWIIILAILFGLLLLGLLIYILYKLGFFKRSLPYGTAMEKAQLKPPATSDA
T1 sequence (P05556 21-798 limits assumed, chain 2 of 2): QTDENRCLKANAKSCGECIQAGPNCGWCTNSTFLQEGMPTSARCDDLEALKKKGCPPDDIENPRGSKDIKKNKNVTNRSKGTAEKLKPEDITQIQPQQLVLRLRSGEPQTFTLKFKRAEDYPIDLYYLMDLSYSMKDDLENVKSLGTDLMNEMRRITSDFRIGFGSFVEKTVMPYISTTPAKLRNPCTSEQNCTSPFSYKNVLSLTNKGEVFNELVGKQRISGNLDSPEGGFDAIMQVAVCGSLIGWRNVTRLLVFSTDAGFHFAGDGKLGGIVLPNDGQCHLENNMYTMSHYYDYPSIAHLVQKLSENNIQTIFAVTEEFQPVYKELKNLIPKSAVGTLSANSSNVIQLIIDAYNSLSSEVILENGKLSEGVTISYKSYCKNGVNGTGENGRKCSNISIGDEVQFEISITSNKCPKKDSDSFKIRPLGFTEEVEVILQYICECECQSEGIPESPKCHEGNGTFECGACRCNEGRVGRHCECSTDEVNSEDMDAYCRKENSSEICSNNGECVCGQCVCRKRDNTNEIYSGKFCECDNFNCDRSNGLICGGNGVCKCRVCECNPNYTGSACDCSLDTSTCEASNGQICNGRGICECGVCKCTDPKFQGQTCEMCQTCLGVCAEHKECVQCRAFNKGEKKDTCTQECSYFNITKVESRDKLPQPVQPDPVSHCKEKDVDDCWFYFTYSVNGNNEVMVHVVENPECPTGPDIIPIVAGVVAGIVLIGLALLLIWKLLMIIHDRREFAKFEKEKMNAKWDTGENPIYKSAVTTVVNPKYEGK
The assay can be described thus: flow cytometry on PMA-activated K562 cells, hybridoma supernatant. Here is the method:
Four weeks later cells from spleens and draining lymph nodes were fused to create hybridomas. […] In short, hybridoma supernatants were incubated with the activated K562 cells for 20 minutes, washed, then incubated with a fluorescent conjugated detecting antibody for 20 minutes, washed, resuspended in 7-Aminoactinomycin D, and Mean Fluorescence Intensity (MFI) measured on a Guava cytometer (Luminex Corporation, Austin, TX 78727).
As for B1, the MFI is 742.

For the molecule B2, the MFI is 1610.

Molecule B3 had an MFI of 1180.

In turn, B4 returned an MFI of 6570.

The target in a further assay is T2, recombinant human α4β1 integrin (human, UniProt P13612 34-977; P05556 21-728).
T2 construct: bought recombinant heterodimer (R&D Systems cat. 5668-A4) coated on the plate; also called rh-α4β1
T2 sequence (P13612 34-977 limits assumed, form in doubt, chain 1 of 2): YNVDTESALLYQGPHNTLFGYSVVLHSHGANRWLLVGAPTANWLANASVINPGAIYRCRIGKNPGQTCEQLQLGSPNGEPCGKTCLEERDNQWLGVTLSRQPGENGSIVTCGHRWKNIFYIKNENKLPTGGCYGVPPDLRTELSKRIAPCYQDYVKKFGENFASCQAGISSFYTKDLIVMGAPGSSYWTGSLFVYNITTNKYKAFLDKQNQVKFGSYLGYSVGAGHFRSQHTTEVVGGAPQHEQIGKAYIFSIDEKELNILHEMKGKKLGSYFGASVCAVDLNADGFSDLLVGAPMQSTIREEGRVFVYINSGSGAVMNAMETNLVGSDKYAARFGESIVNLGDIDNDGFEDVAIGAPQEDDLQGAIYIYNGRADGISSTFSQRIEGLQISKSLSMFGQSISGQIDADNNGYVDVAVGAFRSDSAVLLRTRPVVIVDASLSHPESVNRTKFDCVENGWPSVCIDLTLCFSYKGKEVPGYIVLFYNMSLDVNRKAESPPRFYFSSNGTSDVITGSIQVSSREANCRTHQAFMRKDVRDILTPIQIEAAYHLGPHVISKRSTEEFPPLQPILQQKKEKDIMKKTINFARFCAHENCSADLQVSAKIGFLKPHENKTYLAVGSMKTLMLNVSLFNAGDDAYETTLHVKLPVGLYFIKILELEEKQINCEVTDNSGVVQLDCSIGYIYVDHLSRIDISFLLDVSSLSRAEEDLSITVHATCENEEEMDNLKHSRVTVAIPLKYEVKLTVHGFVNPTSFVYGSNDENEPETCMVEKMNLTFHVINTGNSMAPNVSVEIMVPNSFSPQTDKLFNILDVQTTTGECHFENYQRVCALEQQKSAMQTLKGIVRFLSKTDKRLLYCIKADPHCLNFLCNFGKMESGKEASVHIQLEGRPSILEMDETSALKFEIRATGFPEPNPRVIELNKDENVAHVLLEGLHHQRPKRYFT
T2 sequence (P05556 21-728 limits assumed, form in doubt, chain 2 of 2): as the sequence (P05556 21-728 limits assumed, form in doubt, chain 2 of 2) above
Description: ELISA, coated integrin, supernatant 1:10. Here is the method: (§1) Plates were washed 3 times with Wash Buffer (1× Tris Buffered Saline containing 0.05% Tween20), blocked with 2% BSA in 1×TBS (made from 10× Thermo Scientific Blocker BSA (10×) in TBS; Thermo Fisher Scientific, Waltham, MA, cat. no. 37520) for 2 hours at room temperature (RT) then incubated with hybridoma supernatants diluted 1:10 with Standard Diluent (2% BSA, 1×TBS, 0.05% Tween20). […] Absorbance 450 nm was measured.
On the technique in general: ELISA stands for enzyme-linked immunosorbent assay.
B5: the “Absorbance 450 nm” value was determined as 0.0848 A450.

In the case of B6, the “Absorbance 450 nm” value worked out at 0.0769 A450.

As to B7, the “Absorbance 450 nm” value amounted to 0.0855 A450.

With B8, the “Absorbance 450 nm” value amounted to 0.171 A450.

Take B9: the “Absorbance 450 nm” value was determined as 0.0801 A450.

For the molecule B10, the “Absorbance 450 nm” value was 0.165 A450.

Turning to B11, the “Absorbance 450 nm” value was 0.0843 A450.

On to B12, for which the “Absorbance 450 nm” value worked out at 0.108 A450.

As for B13, the “Absorbance 450 nm” value is 0.081 A450.

Another assay addresses T3, recombinant mouse α5β1 integrin (mouse, UniProt P11688 45-999; P09055 21-728).
T3 construct: bought recombinant heterodimer (R&D Systems cat. 7728-A5) coated on the plate; also called rm-α5β1
The assay can be described thus: ELISA, coated integrin, supernatant 1:10. Here is the method: as §1
With B14, the Absorbance 450 nm stood at 0.671 A450.

Take B5: the “Absorbance 450 nm” value was determined as 0.0755 A450.

Take B7: the “Absorbance 450 nm” value is 0.0924 A450.

As for B8, the “Absorbance 450 nm” value stood at 0.17 A450.

Turning to B9, the “Absorbance 450 nm” value was 0.0959 A450.

Consider B10, for which the “Absorbance 450 nm” value was found to be 0.0872 A450.

For the molecule B11, the “Absorbance 450 nm” value came to 0.0766 A450.

Turning to B12, the “Absorbance 450 nm” value was determined as 0.11 A450.

As for B13, the “Absorbance 450 nm” value amounted to 0.0799 A450.

For another assay, the target named is T4, recombinant human α5β1 integrin (human, UniProt P08648 42-995; P05556 21-728).
T4 construct: also called rh-α5β1
T4 sequence (P08648 42-995 limits assumed, form in doubt, chain 1 of 2): as the sequence (P08648 42-995 limits assumed, form in doubt, chain 1 of 2) above
T4 sequence (P05556 21-728 limits assumed, form in doubt, chain 2 of 2): as the sequence (P05556 21-728 limits assumed, form in doubt, chain 2 of 2) above
Description: ELISA, coated integrin, supernatant 1:10. Here is the method:
as §1
For the molecule B5, the “Absorbance 450 nm” value stood at 0.613 A450.

On to B6, for which the “Absorbance 450 nm” value stood at 0.352 A450.

With B7, the “Absorbance 450 nm” value came to 0.824 A450.

As for B8, the “Absorbance 450 nm” value was determined as 0.702 A450.

Turning to B9, the “Absorbance 450 nm” value came out at 0.687 A450.

As for B10, the “Absorbance 450 nm” value came out at 0.805 A450.

Regarding B11, the “Absorbance 450 nm” value amounted to 0.519 A450.

In the case of B12, the “Absorbance 450 nm” value was found to be 1.17 A450.

Regarding B13, the “Absorbance 450 nm” value came to 1.25 A450.

A further assay deals with T5, recombinant human α5β1 integrin (rh-α5β1; R&D Systems, cat. no. 3230-A5) (human, UniProt P08648 42-995; P05556 21-728).
T5 construct: bought recombinant heterodimer
T5 sequence (P08648 42-995 limits assumed, form in doubt, chain 1 of 2): as the sequence (P08648 42-995 limits assumed, form in doubt, chain 1 of 2) above
T5 sequence (P05556 21-728 limits assumed, form in doubt, chain 2 of 2): as the sequence (P05556 21-728 limits assumed, form in doubt, chain 2 of 2) above
The assay can be described thus: ELISA, coated rh-α5β1, supernatant 1:10. Here is the method:
as §1
For B15, the “Absorbance 450 nm” value came out at 1.91.

As to B16, the “Absorbance 450 nm” value was 2.01.

In the case of B17, the “Absorbance 450 nm” value amounted to 1.45.

The next assay addresses T6, purified recombinant human α5β1 integrin heterodimer, 6×His tagged (rh-α5β1); Acro Biosystems, cat. no. … (human, UniProt P08648 42-995; P05556 21-728).
T6 construct: bought recombinant heterodimer; also called rh-α5β1-6×His tagged protein; His-tagged-α5β1
The assay can be described thus: BLI (Octet), supernatant mAb on anti-mouse IgG Fc sensor, 20 nM rh-α5β1. An excerpt:
Anti-Mouse IgG Fc biosensors were used to load each clone supernatant. Assay steps were as follows: Sensor Check (30s)-->Load Ab (700s)-->Quench (480s)-->Baseline(480s)-->Ab Assoc. (600s)-->Dissoc. (600s).
In general terms: In BLI a coated tip is dipped into the sample, and binding shifts an interference pattern.
As usually defined, the Kd is the constant that tells how readily two partners part at equilibrium. By koff is commonly meant the rate constant with which the complex falls apart. Usually kon stands for the rate constant with which the complex forms. As to B15, the Kd was 5.02 nM, the koff was determined as 0.00139 s⁻¹ and the kon was determined as 277000 M⁻¹ s⁻¹.

Consider B16, for which the Kd worked out at 3.5 nM, the koff was 0.000911 s⁻¹ and the kon amounted to 260000 M⁻¹ s⁻¹.

Take B17: the Kd came out at 4.81 nM, the koff is 0.00139 s⁻¹ and the kon was 289000 M⁻¹ s⁻¹.

For another assay, the target named is α5β1 integrin on U87MG cells (human, UniProt P08648 42-1049; P05556 21-798). Description: cell-based or functional assay.
IgG4 Isotype (antibody) had a Cell Counts (Curve Bottom) of 32000 cells and a Cell Counts (Curve Top) of 50000 cells.

As a reminder, the % Inhibition is the share of the control response that was lost under treatment. Higher therefore signals a strong effect. On to B18, for which the “% Inhibition” value was 86%, the “Cell Counts (Curve Bottom)” value turned out to be 4780 cells and the “Cell Counts (Curve Top)” value was found to be 33800 cells.

Turning to B19, the “% Inhibition” value came out at 78%, the “Cell Counts (Curve Bottom)” value came to 8040 cells and the “Cell Counts (Curve Top)” value was determined as 37200 cells.
